Measured values published in the supplement of paper PMC9112550, “Optimization of the antimicrobial peptide Bac7 by deep mutational scanning” (BMC Biology, 2022).

Test system: Escherichia coli TOP10
Test: shrunken log2 fold change of peptide-encoding DNA abundance (4.5 h post-induction vs induction); higher = less antimicrobial activity (less host growth inhibition)
Conditions: time post-induction: 4.5 h; library: site-saturation at positions 5, 18, 19, 20
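Further: peptides expressed intracellularly from a pBAD plasmid library in pooled LB shake-flask culture, induced with 0.3% L-arabinose, DNA abundance read by NGS, three biological replicates, DESeq2 with apeglm shrinkage.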

| Sequence | shrunken log2 fold change |
| --- | --- |
| RRIRFRPPRLPRPRPRPQSHPRP | -0.243 |
| RRIRFRPPRLPRPRPRPQSLPRP | -0.274 |
| RRIRFRPPRLPRPRPRPQTHPRP | -0.151 |
| RRIRFRPPRLPRPRPRPQYGPRP | -0.0328 |
| RRIRFRPPRLPRPRPRPQYLPRP | -0.329 |
| RRIRFRPPRLPRPRPRPRAMPRP | 0.241 |
| RRIRFRPPRLPRPRPRPRASPRP | 0.33 |
| RRIRFRPPRLPRPRPRPRAWPRP | 0.409 |
| RRIRFRPPRLPRPRPRPRDHPRP | 0.015 |
| RRIRFRPPRLPRPRPRPREMPRP | 0.286 |
| RRIRFRPPRLPRPRPRPRFGPRP | -0.0656 |
| RRIRFRPPRLPRPRPRPRGNPRP | -0.0828 |
| RRIRFRPPRLPRPRPRPRIFPRP | -0.102 |
| RRIRFRPPRLPRPRPRPRIHPRP | -0.262 |
| RRIRFRPPRLPRPRPRPRIPPRP | -0.0955 |
| RRIRFRPPRLPRPRPRPRKYPRP | -0.177 |
| RRIRFRPPRLPRPRPRPRLAPRP | 0.69 |
| RRIRFRPPRLPRPRPRPRLEPRP | 0.392 |
| RRIRFRPPRLPRPRPRPRLKPRP | 0.0563 |
| RRIRFRPPRLPRPRPRPRNVPRP | -0.372 |
| RRIRFRPPRLPRPRPRPRPSPRP | 0.433 |
| RRIRFRPPRLPRPRPRPRPTPRP | 0.732 |
| RRIRFRPPRLPRPRPRPRQCPRP | -0.123 |
| RRIRFRPPRLPRPRPRPRQLPRP | -0.0618 |
| RRIRFRPPRLPRPRPRPRSAPRP | 0.379 |

| Sequence | shrunken log2 fold change |
| --- | --- |
| RRIRFRPPRLPRPRPRPRSPPRP | 1.06 |
| RRIRFRPPRLPRPRPRPRSQPRP | -0.105 |
| RRIRFRPPRLPRPRPRPRTGPRP | 0.0905 |
| RRIRFRPPRLPRPRPRPRTSPRP | 0.223 |
| RRIRFRPPRLPRPRPRPRWYPRP | -0.351 |
| RRIRFRPPRLPRPRPRPRYLPRP | -0.0779 |
| RRIRFRPPRLPRPRPRPRYRPRP | -0.4 |
| RRIRFRPPRLPRPRPRPRYVPRP | -0.105 |
| RRIRFRPPRLPRPRPRPRYWPRP | -0.0206 |
| RRIRFRPPRLPRPRPRPSAIPRP | -0.304 |
| RRIRFRPPRLPRPRPRPSDSPRP | -0.21 |
| RRIRFRPPRLPRPRPRPSFAPRP | -0.156 |
| RRIRFRPPRLPRPRPRPSGYPRP | 0.00547 |
| RRIRFRPPRLPRPRPRPSHGPRP | -0.391 |
| RRIRFRPPRLPRPRPRPSHHPRP | -0.534 |
| RRIRFRPPRLPRPRPRPSINPRP | -0.625 |
| RRIRFRPPRLPRPRPRPSKTPRP | 0.0514 |
| RRIRFRPPRLPRPRPRPSLEPRP | -0.0776 |
| RRIRFRPPRLPRPRPRPSLTPRP | -0.413 |
| RRIRFRPPRLPRPRPRPSMIPRP | -0.603 |
| RRIRFRPPRLPRPRPRPSMPPRP | -0.331 |
| RRIRFRPPRLPRPRPRPSPAPRP | 0.176 |
| RRIRFRPPRLPRPRPRPSPLPRP | -0.0981 |
| RRIRFRPPRLPRPRPRPSQAPRP | -0.0595 |
| RRIRFRPPRLPRPRPRPSQHPRP | -0.612 |

| Sequence | shrunken log2 fold change |
| --- | --- |
| RRIRFRPPRLPRPRPRPSQKPRP | -0.0426 |
| RRIRFRPPRLPRPRPRPSQWPRP | -0.171 |
| RRIRFRPPRLPRPRPRPSSLPRP | -0.856 |
| RRIRFRPPRLPRPRPRPSSVPRP | -0.503 |
| RRIRFRPPRLPRPRPRPSTCPRP | -0.262 |
| RRIRFRPPRLPRPRPRPSTSPRP | -0.0297 |
| RRIRFRPPRLPRPRPRPSVPPRP | -0.0911 |
| RRIRFRPPRLPRPRPRPSWFPRP | -0.403 |
| RRIRFRPPRLPRPRPRPSWRPRP | 0.167 |
| RRIRFRPPRLPRPRPRPSWWPRP | 0.212 |
| RRIRFRPPRLPRPRPRPSYNPRP | -1.04 |
| RRIRFRPPRLPRPRPRPTACPRP | -0.118 |
| RRIRFRPPRLPRPRPRPTAGPRP | 0.0761 |
| RRIRFRPPRLPRPRPRPTCIPRP | -0.13 |
| RRIRFRPPRLPRPRPRPTCRPRP | -0.0357 |
| RRIRFRPPRLPRPRPRPTDNPRP | -0.205 |
| RRIRFRPPRLPRPRPRPTDRPRP | 0.243 |
| RRIRFRPPRLPRPRPRPTDWPRP | 0.335 |
| RRIRFRPPRLPRPRPRPTFDPRP | -0.138 |
| RRIRFRPPRLPRPRPRPTFLPRP | -0.452 |
| RRIRFRPPRLPRPRPRPTFMPRP | -0.444 |
| RRIRFRPPRLPRPRPRPTGPPRP | 0.445 |
| RRIRFRPPRLPRPRPRPTHMPRP | 0.0264 |
| RRIRFRPPRLPRPRPRPTIWPRP | -0.000248 |
| RRIRFRPPRLPRPRPRPTLKPRP | -0.0426 |

| Sequence | shrunken log2 fold change |
| --- | --- |
| RRIRFRPPRLPRPRPRPTLWPRP | 0.275 |
| RRIRFRPPRLPRPRPRPTPLPRP | 0.3 |
| RRIRFRPPRLPRPRPRPTRDPRP | 0.613 |
| RRIRFRPPRLPRPRPRPTRKPRP | 0.516 |
| RRIRFRPPRLPRPRPRPTRQPRP | 0.298 |
| RRIRFRPPRLPRPRPRPTSAPRP | 0.344 |
| RRIRFRPPRLPRPRPRPTSVPRP | -0.0668 |
| RRIRFRPPRLPRPRPRPTTHPRP | -0.0585 |
| RRIRFRPPRLPRPRPRPTTSPRP | 0.0366 |
| RRIRFRPPRLPRPRPRPTTTPRP | 0.212 |
| RRIRFRPPRLPRPRPRPTWSPRP | 0.188 |
| RRIRFRPPRLPRPRPRPTYCPRP | -0.339 |
| RRIRFRPPRLPRPRPRPTYEPRP | -0.3 |
| RRIRFRPPRLPRPRPRPVAKPRP | -0.0163 |
| RRIRFRPPRLPRPRPRPVCFPRP | -0.151 |
| RRIRFRPPRLPRPRPRPVDDPRP | -0.601 |
| RRIRFRPPRLPRPRPRPVDRPRP | 0.123 |
| RRIRFRPPRLPRPRPRPVEGPRP | -0.0615 |
| RRIRFRPPRLPRPRPRPVFVPRP | -0.277 |
| RRIRFRPPRLPRPRPRPVGEPRP | 0.29 |
| RRIRFRPPRLPRPRPRPVGGPRP | 0.405 |
| RRIRFRPPRLPRPRPRPVGKPRP | 0.13 |
| RRIRFRPPRLPRPRPRPVGWPRP | 0.62 |
| RRIRFRPPRLPRPRPRPVHLPRP | -0.0117 |
| RRIRFRPPRLPRPRPRPVIIPRP | -0.415 |

| Sequence | shrunken log2 fold change |
| --- | --- |
| RRIRFRPPRLPRPRPRPVKPPRP | -0.0579 |
| RRIRFRPPRLPRPRPRPVKRPRP | 0.0219 |
| RRIRFRPPRLPRPRPRPVLIPRP | -0.17 |
| RRIRFRPPRLPRPRPRPVMFPRP | -0.218 |
| RRIRFRPPRLPRPRPRPVMYPRP | -0.195 |
| RRIRFRPPRLPRPRPRPVNHPRP | -0.384 |
| RRIRFRPPRLPRPRPRPVPIPRP | -0.0344 |
| RRIRFRPPRLPRPRPRPVQAPRP | 0.183 |
| RRIRFRPPRLPRPRPRPVQTPRP | 0.0206 |
| RRIRFRPPRLPRPRPRPVREPRP | 0.269 |
| RRIRFRPPRLPRPRPRPVTMPRP | -0.295 |
| RRIRFRPPRLPRPRPRPVVCPRP | -0.0801 |
| RRIRFRPPRLPRPRPRPVWTPRP | -0.488 |
| RRIRFRPPRLPRPRPRPVWYPRP | -0.308 |
| RRIRFRPPRLPRPRPRPVYCPRP | -0.408 |
| RRIRFRPPRLPRPRPRPWADPRP | -0.168 |
| RRIRFRPPRLPRPRPRPWCLPRP | -0.17 |
| RRIRFRPPRLPRPRPRPWCMPRP | -0.214 |
| RRIRFRPPRLPRPRPRPWCYPRP | -0.751 |
| RRIRFRPPRLPRPRPRPWDFPRP | -0.0975 |
| RRIRFRPPRLPRPRPRPWDGPRP | 0.00772 |
| RRIRFRPPRLPRPRPRPWDLPRP | 2.08 |
| RRIRFRPPRLPRPRPRPWDVPRP | -0.0811 |
| RRIRFRPPRLPRPRPRPWFCPRP | 3.7 |
| RRIRFRPPRLPRPRPRPWHLPRP | -0.0307 |

| Sequence | shrunken log2 fold change |
| --- | --- |
| RRIRFRPPRLPRPRPRPWIQPRP | -0.997 |
| RRIRFRPPRLPRPRPRPWKRPRP | -0.0222 |
| RRIRFRPPRLPRPRPRPWLGPRP | 0.0212 |
| RRIRFRPPRLPRPRPRPWLVPRP | -0.135 |
| RRIRFRPPRLPRPRPRPWPLPRP | -0.0977 |
| RRIRFRPPRLPRPRPRPWQPPRP | 0.0512 |
| RRIRFRPPRLPRPRPRPWRDPRP | -0.136 |
| RRIRFRPPRLPRPRPRPWRIPRP | -0.0447 |
| RRIRFRPPRLPRPRPRPWSDPRP | -0.159 |
| RRIRFRPPRLPRPRPRPWSKPRP | -0.079 |
| RRIRFRPPRLPRPRPRPWTVPRP | -0.0388 |
| RRIRFRPPRLPRPRPRPWVCPRP | 0.029 |
| RRIRFRPPRLPRPRPRPWVDPRP | -0.608 |
| RRIRFRPPRLPRPRPRPWVIPRP | -0.412 |
| RRIRFRPPRLPRPRPRPWVMPRP | -0.258 |
| RRIRFRPPRLPRPRPRPWVWPRP | 0.212 |
| RRIRFRPPRLPRPRPRPWWEPRP | 0.0381 |
| RRIRFRPPRLPRPRPRPWYMPRP | -0.991 |
| RRIRFRPPRLPRPRPRPWYRPRP | -0.0778 |
| RRIRFRPPRLPRPRPRPYALPRP | -0.0591 |
| RRIRFRPPRLPRPRPRPYCCPRP | -0.324 |
| RRIRFRPPRLPRPRPRPYCEPRP | -0.0267 |
| RRIRFRPPRLPRPRPRPYCPPRP | -0.721 |
| RRIRFRPPRLPRPRPRPYCRPRP | -0.256 |
| RRIRFRPPRLPRPRPRPYCVPRP | -1.23 |
